In PMC4906247 (2016):

B1: WT hDAPK2 expressed in HEK293T cells (CaM pull-down from lysate) [human] / calcium/calmodulin on Sepharose 4B (Sepharose 4B-CaM) [not stated] (parent complex)
chain 1: MFQASMRSPNMEPFKQQKVEDFYDIGEELGSGQFAIVKKCREKSTGLEYAAKFIKKRQSRASRRGVSREEIEREVSILRQVLHHNVITLHDVYENRTDVVLILELVSGGELFDFLAQKESLSEEEATSFIKQILDGVNYLHTKKIAHFDLKPENIMLLDKNIPIPHIKLIDFGLAHEIEDGVEFKNIFGTPEFVAPEIVNYEPLGLEADMWSIGVITYILLSGASPFLGDTKQETLANITAVSYDFDEEFFSQTSELAKDFIRKLLVKETRKRLTIQEALRHPWITPVDNQQAMVRRESVVNLENFRKQYVRRRWKLSFSIVSLCNHLTRSLMKKVHLRPDEDLRNCESDTEEDIARRKALHPRRRSSTS
chain 2: not shown

Variants of: B1
Assay: CaM pull-down from HEK293T cell lysate, western blot; HEK293T transfected cells; EGTA-mediated elution on Sepharose 4B-CaM; read off a plot

Variant	response
chain 1 R57E, chain 1 R60E, chain 1 R63E, chain 1 R64E, chain 1 W315D	~0.42 relative unit (normalized to W305D)
chain 1 W315D	~1 relative unit (normalized to W305D)
